Experimental data from US20180344813A1, “ENGINEERED POLYPEPTIDES HAVING ENHANCED DURATION OF ACTION WITH REDUCED IMMUNOGENICITY” (priority 2016, published 2018).
Like-named read-outs stand apart in the source and are kept apart here.

Columns and labels:
[1] = test system: IgG molecules present in normal human sera; experiment: Serum response analysis: ELISA of human serum IgG binding to albumin binding polypeptides
Protocol: Each serum sample was tested as a singlet.

[2] = test system: renal cortical tubular epithelial cells; experiment: Kidney vacuolization histopathology in C57BL6 female mice; format: in vivo, mouse
Protocol: With some drugs, such as some pegylated proteins, undesirable vacuoles can form in cytoplasm of epithelial cells lining the proximal convoluted tubules, which is an undesirable toxicity measure. […] C57BL6 female mice (n=2 cages, 3 mice/cage) were weighed daily 3 hours prior to lights out. Immediately after weighing, on days 0-6 mice were injected subcutaneously with test compound. Mice were sacrificed on day 7 and kidneys submitted for histopathology. […] A positive control compound known to cause vacuole formation was scored as 3.

NIH/Swiss mice = experiment: OGTT DOA (oral glucose tolerance test duration of action); format: in vivo, mouse; details: 25 nmol/Kg, OGTT at 24 hours post drug administration, 30 minutes post gavage; 4-hr fasted NIH/Swiss mice
Protocol: For example, duration can be performed using an oral glucose tolerance test (OGTT) in which the drug is administered to the subject at a desired time point before the glucose is administered orally(to measure drug duration of action; OGTT DOA) and glucose blood levels are measured (e.g. readily done in mice).
Drug was administered to 4-hr fasted NIH/Swiss mice. […] Blood glucose was measured with a OneTouch® Ultra® (LifeScan, Inc., a Johnson & Johnson Company, Milpitas, Calif.). *p<0.05 vs. vehicle control; ANOVA, Dunnett's test. Glucose lowering as percent lowering compared to vehicle is given (negative value indicates lowering of glucose) at 30 minutes post gavage.

Compound | reactivity with serum IgG (average OD-value and percentage of serum with IgG binding) [1] | number of responding individuals (CD3+ CD4+ T cells) | further results
CC[C@H](C)[C@H](NC(=O)[C@H](Cc1c[nH]cn1)NC(=O)[C@H](CC(C)C)NC(=O)[C@H](CCCCN)NC(=O)[C@H](CC(C)C)NC(=O)[C@H](C)NC(=O)[C@H](CCC(=O)O)NC(=O)[C@@H](NC(=O)CNC(=O)[C@H](CCC(=O)O)NC(=O)[C@@H](NC(=O)[C@@H](NC(=O)[C@H](CCCCN)NC(=O)[C@H](C)NC(=O)[C@H](CCCCN)NC(=O)[C@H](CC(N)=O)NC(=O)[C@@H](NC(=O)[C@H](CC(C)C)NC(=O)[C@H](CCCNC(=N)N)NC(=O)[C@H](CCCCN)NC(=O)[C@H](Cc1ccc(O)cc1)NC(=O)[C@H](Cc1ccccc1)NC(=O)[C@H](CC(=O)O)NC(=O)[C@H](CO)NC(=O)[C@@H](NC(=O)CNC(=O)[C@H](Cc1ccc(O)cc1)NC(=O)[C@H](CCCCN)NC(=O)[C@H](CC(=O)O)NC(=O)[C@H](CC(C)C)NC(=O)[C@H](CCC(=O)O)NC(=O)[C@H](CCCNC(=N)N)NC(=O)[C@H](CC(N)=O)NC(=O)[C@H](C)NC(=O)[C@H](CC(C)C)NC(=O)[C@@H](NC(=O)[C@H](CCCCN)NC(=O)[C@H](C)NC(=O)[C@H](CCC(=O)O)NC(=O)[C@H](C)NC(=O)[C@H](CC(C)C)NC(=O)[C@H](CO)NC(=O)[C@H](CO)NC(=O)CN)C(C)C)C(C)C)[C@@H](C)CC)[C@@H](C)O)C(C)C)C(C)C)C(=O)N[C@@H](CC(C)C)C(=O)N[C@@H](C)C(=O)N[C@@H](C)C(=O)N[C@@H](CC(C)C)C(=O)N1CCC[C@H]1C(=O)O [PEP06923, reference compound] |  |  | reactivity with serum IgG (average OD-value and percentage of serum with IgG binding) ([1]; 126 positive human sera, diluted 50 times): highest
CC[C@H](C)[C@H](NC(=O)[C@H](C)NC(=O)[C@H](CC(=O)O)NC(=O)[C@H](CCCCN)NC(=O)[C@H](CC(C)C)NC(=O)[C@H](C)NC(=O)[C@H](CCC(=O)O)NC(=O)[C@@H](NC(=O)CNC(=O)[C@H](CCC(=O)O)NC(=O)[C@@H](NC(=O)[C@@H](NC(=O)[C@H](CCCCN)NC(=O)[C@H](C)NC(=O)[C@H](CCCCN)NC(=O)[C@H](CC(=O)O)NC(=O)[C@@H](NC(=O)[C@H](CC(C)C)NC(=O)[C@H](CCCNC(=N)N)NC(=O)[C@H](CCCCN)NC(=O)[C@H](Cc1ccc(O)cc1)NC(=O)[C@H](Cc1ccccc1)NC(=O)[C@H](CC(=O)O)NC(=O)[C@H](CO)NC(=O)[C@@H](NC(=O)CNC(=O)[C@H](Cc1ccc(O)cc1)NC(=O)[C@H](CCCCN)NC(=O)[C@H](CC(=O)O)NC(=O)[C@H](CC(C)C)NC(=O)[C@H](CCC(=O)O)NC(=O)[C@H](C)NC(=O)[C@H](CC(N)=O)NC(=O)[C@H](C)NC(=O)[C@H](C)NC(=O)[C@H](CCC(=O)O)NC(=O)[C@H](CCCCN)NC(=O)[C@H](C)NC(=O)[C@H](CO)NC(=O)[C@H](C)NC(=O)[C@H](CC(C)C)NC(=O)[C@H](CO)NC(=O)[C@H](CO)NC(=O)CN)C(C)C)[C@@H](C)CC)[C@@H](C)O)C(C)C)C(C)C)C(=O)N[C@@H](CC(C)C)C(=O)N[C@@H](C)C(=O)N[C@@H](C)C(=O)N[C@@H](CC(C)C)C(=O)N1CCC[C@H]1C(=O)O [PEP07844] | highest |  | 
CC[C@H](C)[C@H](NC(=O)[C@H](CCC(=O)O)NC(=O)[C@H](CC(=O)O)NC(=O)[C@@H](NC(=O)[C@H](CC(C)C)NC(=O)[C@H](C)NC(=O)[C@H](CCCCN)NC(=O)[C@@H](NC(=O)CNC(=O)[C@H](CCC(=O)O)NC(=O)[C@@H](NC(=O)[C@@H](NC(=O)[C@H](CCCCN)NC(=O)[C@H](C)NC(=O)[C@H](CC(N)=O)NC(=O)[C@H](CC(N)=O)NC(=O)[C@@H](NC(=O)[C@H](CC(C)C)NC(=O)[C@H](CC(N)=O)NC(=O)[C@H](CCCCN)NC(=O)[C@H](Cc1ccc(O)cc1)NC(=O)[C@H](Cc1ccc(O)cc1)NC(=O)[C@H](CC(=O)O)NC(=O)[C@H](CO)NC(=O)[C@@H](NC(=O)CNC(=O)[C@H](Cc1ccc(O)cc1)NC(=O)[C@H](CCCCN)NC(=O)[C@H](CC(=O)O)NC(=O)[C@H](CC(C)C)NC(=O)[C@H](CCC(=O)O)NC(=O)[C@H](CCCNC(=N)N)NC(=O)[C@H](CC(N)=O)NC(=O)[C@H](C)NC(=O)[C@H](CC(C)C)NC(=O)[C@@H](NC(=O)[C@H](CCCCN)NC(=O)[C@H](C)NC(=O)[C@H](CCC(=O)O)NC(=O)[C@H](C)NC(=O)[C@H](CC(C)C)NC(=O)CN)C(C)C)C(C)C)[C@@H](C)CC)[C@@H](C)O)C(C)C)C(C)C)[C@@H](C)CC)C(=O)N[C@@H](CC(C)C)C(=O)N[C@@H](C)C(=O)N[C@@H](C)C(=O)N[C@@H](CC(C)C)C(=O)N1CCC[C@H]1C(=O)O [PEP07913, reference compound] | highest |  | 
CC[C@H](C)[C@H](NC(=O)[C@H](C)NC(=O)[C@H](CC(=O)O)NC(=O)[C@H](CCCCN)NC(=O)[C@H](CC(C)C)NC(=O)[C@H](C)NC(=O)[C@H](CCC(=O)O)NC(=O)[C@@H](NC(=O)CNC(=O)[C@H](CCC(=O)O)NC(=O)[C@@H](NC(=O)[C@@H](NC(=O)[C@H](CCCCN)NC(=O)[C@H](C)NC(=O)[C@H](CCCCN)NC(=O)[C@H](CC(=O)O)NC(=O)[C@@H](NC(=O)[C@H](CC(C)C)NC(=O)[C@H](CCCNC(=N)N)NC(=O)[C@H](CCCCN)NC(=O)[C@H](Cc1ccc(O)cc1)NC(=O)[C@H](Cc1ccccc1)NC(=O)[C@H](CC(=O)O)NC(=O)[C@H](CO)NC(=O)[C@@H](NC(=O)CNC(=O)[C@H](Cc1ccc(O)cc1)NC(=O)[C@H](CO)NC(=O)[C@H](CC(=O)O)NC(=O)[C@H](CC(C)C)NC(=O)[C@H](CCC(=O)O)NC(=O)[C@H](C)NC(=O)[C@H](CC(N)=O)NC(=O)[C@H](C)NC(=O)[C@H](C)NC(=O)[C@H](CCC(=O)O)NC(=O)[C@H](CCCCN)NC(=O)[C@H](C)NC(=O)[C@H](CCC(=O)O)NC(=O)[C@H](C)NC(=O)[C@H](CC(C)C)NC(=O)CN)C(C)C)[C@@H](C)CC)[C@@H](C)O)C(C)C)C(C)C)C(=O)N[C@@H](CC(C)C)C(=O)N[C@@H](C)C(=O)N[C@@H](C)C(=O)N[C@@H](CC(C)C)C(=O)N1CCC[C@H]1C(=O)O [PEP07914] | least reactivity | 2 | immunogenicity definition (CD3+ CD4+ T cells): non-immunogenic
CC[C@H](C)[C@H](NC(=O)[C@H](C)NC(=O)[C@H](CC(=O)O)NC(=O)[C@H](CCCCN)NC(=O)[C@H](CC(C)C)NC(=O)[C@H](C)NC(=O)[C@H](CCC(=O)O)NC(=O)[C@@H](NC(=O)CNC(=O)[C@H](CCC(=O)O)NC(=O)[C@@H](NC(=O)[C@@H](NC(=O)[C@H](CCCCN)NC(=O)[C@H](C)NC(=O)[C@H](CCCCN)NC(=O)[C@H](CC(=O)O)NC(=O)[C@@H](NC(=O)[C@H](CC(C)C)NC(=O)[C@H](CCCNC(=N)N)NC(=O)[C@H](CCCCN)NC(=O)[C@H](Cc1ccc(O)cc1)NC(=O)[C@H](Cc1ccccc1)NC(=O)[C@H](CC(=O)O)NC(=O)[C@H](CO)NC(=O)[C@@H](NC(=O)CNC(=O)[C@H](Cc1ccc(O)cc1)NC(=O)[C@H](CSC1CC(=O)N(CCNC(=O)CN2CCN(CC(=O)O)CCN(CC(=O)O)CCN(CC(=O)O)CC2)C1=O)NC(=O)[C@H](CC(=O)O)NC(=O)[C@H](CC(C)C)NC(=O)[C@H](CCC(=O)O)NC(=O)[C@H](C)NC(=O)[C@H](CC(N)=O)NC(=O)[C@H](C)NC(=O)[C@H](C)NC(=O)[C@H](CCC(=O)O)NC(=O)[C@H](CCCCN)NC(=O)[C@H](C)NC(=O)[C@H](CO)NC(=O)[C@H](C)NC(=O)[C@H](CC(C)C)NC(=O)CN)C(C)C)[C@@H](C)CC)[C@@H](C)O)C(C)C)C(C)C)C(=O)N[C@@H](CC(C)C)C(=O)N[C@@H](C)C(=O)N[C@@H](C)C(=O)N[C@@H](CC(C)C)C(=O)N1CCC[C@H]1C(=O)O (stereo partly shown) [PEP07968] | least reactivity | 1 | immunogenicity definition (CD3+ CD4+ T cells): non-immunogenic
CC[C@H](C)[C@H](NC(=O)[C@H](C)NC(=O)[C@H](CC(=O)O)NC(=O)[C@H](CCCCN)NC(=O)[C@H](CC(C)C)NC(=O)[C@H](C)NC(=O)[C@H](CCC(=O)O)NC(=O)[C@@H](NC(=O)CNC(=O)[C@H](CCC(=O)O)NC(=O)[C@@H](NC(=O)[C@@H](NC(=O)[C@H](CCCCN)NC(=O)[C@H](C)NC(=O)[C@H](CCCCN)NC(=O)[C@H](CC(=O)O)NC(=O)[C@@H](NC(=O)[C@H](CC(C)C)NC(=O)[C@H](CCCNC(=N)N)NC(=O)[C@H](CCCCN)NC(=O)[C@H](Cc1ccc(O)cc1)NC(=O)[C@H](Cc1ccccc1)NC(=O)[C@H](CC(=O)O)NC(=O)[C@H](CO)NC(=O)[C@@H](NC(=O)CNC(=O)[C@H](Cc1ccc(O)cc1)NC(=O)[C@H](CO)NC(=O)[C@H](CC(=O)O)NC(=O)[C@H](CC(C)C)NC(=O)[C@H](CCC(=O)O)NC(=O)[C@H](C)NC(=O)[C@H](CC(N)=O)NC(=O)[C@H](C)NC(=O)[C@H](C)NC(=O)[C@H](CCC(=O)O)NC(=O)[C@H](CCCCN)NC(=O)[C@H](C)NC(=O)[C@H](CCC(=O)O)NC(=O)[C@H](C)NC(=O)[C@H](CC(C)C)NC(=O)[C@H](CO)NC(=O)CN)C(C)C)[C@@H](C)CC)[C@@H](C)O)C(C)C)C(C)C)C(=O)N[C@@H](CC(C)C)C(=O)N[C@@H](C)C(=O)N[C@@H](C)C(=O)N[C@@H](CC(C)C)C(=O)N1CCC[C@H]1C(=O)O [PEP07986] |  |  | severity score for cytoplasmic vacuolation of renal cortical tubular epithelial cells ([2]; mouse, in vivo, sc): 0
HGEGTFTSDLSKQLEEEAVRLFIEWLKNGGPSSGAPPKSTGGGGSASGSLAEAKEAANAELDSYGVSDFYKRLIDKAKTVEGVEALKDAILAALP [Cmpd 6] |  |  | Percent glucose lowering compared to vehicle (NIH/Swiss mice): −22%
HGEGTFTSDLSKQLEEEAVRLFIEWLKQGGPSKEIISTGGGGSASGSLAEAKEAANAELDSYGVSDFYKRLIDKAKTVEGVEALKDAILAALP [Cmpd 5] |  |  | severity score for cytoplasmic vacuolation of renal cortical tubular epithelial cells ([2]; subcutaneous on days 0-6, sacrificed on day 7, C57BL6 female mice): 0
Keyhole Limpet Hemocyanin [KLH, reference compound] |  | 51 | 
